The values below come from patent US20230183665A1, “THERMOSTABLE GLUCOCEREBROSIDASE” (TEIKYO UNIVERSITY, priority 2020, published 2023).

A short description of data set [1]: Thermostability: relative residual glucocerebrosidase activity after incubation at pH 5 and pH 7 (Examples 6, 13). The class given is physicochemical. The note with it: 37° C.; pH 5 for 6 to 106 hours, pH 7 for 4 to 48 hours; FIGS. 1 and 2. As for the experimental part:
The glucocerebrosidase activity of the fraction was measured as follows: a predetermined amount of sample was added to a 50 mM acetate buffer solution (pH 5.5) containing 100 μM glucosylceramide (cerebroside B), 0.1% Tween 20, and 0.05% sodium cholate, and incubated at 37° C. for 15 minutes. Subsequently, a 4-fold amount of ethanol was added to the obtained reaction solution, mixed therewith, and then centrifuged at 15000 rpm for 20 minutes. The centrifuged supernatant was subjected to high-performance liquid chromatography analysis. […] The amount of ceramide was determined by using, as a standard, ceramide generated from cerebroside B by imiglucerase (manufactured by Sanofi S. A.), human-derived glucocerebrosidase. […] Glucocerebrosidase activity per mL of the enzyme solution was calculated when the amount of the enzyme that generated 1 μmol of ceramide for 1 minute in the enzymatic reaction solution was defined as 1 unit (U).
RGC1 obtained in Example 2 and imiglucerase were each incubated at pH 5 simulating lysosome (50 mM acetate buffer solution (pH 5.0) containing 0.1% Triton X-100 and 0.05% sodium cholate) at 37° C. for 6 to 106 hours or at pH 7 simulating cytoplasm (50 mM potassium phosphate buffer solution (pH 7.0) containing 0.1% Triton X-100 and 0.05% sodium cholate) at 37° C. for 4 to 48 hours. […] This test was conducted three times, and an average value was determined therefrom. […]

Data set [2] is described as follows: Optimum temperature for glucocerebrosidase activity (Examples 5, 12, 20). In kind it is biochemical. To be noted: 100 μM cerebroside B, pH 5.5, 15 minutes at each temperature, average of three tests. As for the experimental part:
The glucocerebrosidase activity of the fraction was measured as follows: a predetermined amount of sample was added to a 50 mM acetate buffer solution (pH 5.5) containing 100 μM glucosylceramide (cerebroside B), 0.1% Tween 20, and 0.05% sodium cholate, and incubated at 37° C. for 15 minutes. Subsequently, a 4-fold amount of ethanol was added to the obtained reaction solution, mixed therewith, and then centrifuged at 15000 rpm for 20 minutes. The centrifuged supernatant was subjected to high-performance liquid chromatography analysis. In the high-performance liquid chromatography analysis, the sample was injected to TSKgel ODS-120T column (4.6 mm×30 cm), and a solvent having an ethanol concentration of 83% was flowed at a flow rate of 0.8 mL/min, followed by detection in a UV detector (ultraviolet absorption wavelength: 215 nm) to thereby measure the amount of ceramide newly generated through enzymatic reaction. The amount of ceramide was determined by using, as a standard, ceramide generated from cerebroside B by imiglucerase (manufactured by Sanofi S. A.), human-derived glucocerebrosidase. The molecular weight of the generated ceramide was examined by negative LC-MS (manufactured by Agilent Technologies, Inc.) to thereby confirm that it was ceramide generated from cerebroside B (ESI-MS m/z: 564.5[M-H]^−). Glucocerebrosidase activity per mL of the enzyme solution was calculated when the amount of the enzyme that generated 1 μmol of ceramide for 1 minute in the enzymatic reaction solution was defined as 1 unit (U).
RGC1 obtained in Example 2 and imiglucerase were each added to a 50 mM acetate buffer solution (pH 5.5) containing 100 μM glucosylceramide (cerebroside B), 0.1% Tween 20, and 0.05% sodium cholate, and incubated at each temperature for 15 minutes. Subsequently, a 4-fold amount of ethanol was added to the obtained reaction solution, mixed therewith, and then centrifuged under a condition of 15000 rpm for 20 minutes. The supernatant was subjected to high-performance liquid chromatography analysis to measure the amount of ceramide generated through enzymatic reaction. The high-performance liquid chromatography analysis was carried out in the same manner as in Example 2. The amount of ceramide and enzymatic activity were also calculated in the same manner as in Example 2. A temperature that attained the highest glucocerebrosidase activity was regarded as the optimum temperature. This test was conducted three times, and an average value was determined therefrom.
The optimum temperatures for the glucocerebrosidase activity of SGC1 obtained in Example 11 and imiglucerase were confirmed by the same method as in Example 5.
Enzyme extracts derived from various plants which were obtained in accordance with Example 19, the purified rice-derived RGC1 mentioned above and the purified soybean-derived SGC1 mentioned above were each added to a 50 mM sodium acetate buffer solution (pH 5.5) containing 100 μM glucosylceramide (cerebroside B), 0.1% Tween 20, and 0.05% sodium cholate, and incubated at each temperature for 15 minutes. Subsequently, a 4-fold amount of ethanol was added to the obtained reaction solution, mixed therewith, and then centrifuged at 15000 rpm for 20 minutes. The supernatant was subjected to high-performance liquid chromatography analysis to measure the amount of ceramide generated through enzymatic reaction. The high-performance liquid chromatography analysis was carried out in the same manner as in Example 5. The amount of ceramide and enzymatic activity were also calculated in the same manner as in Example 5. As a result, a temperature that attained the highest glucocerebrosidase activity was regarded as the optimum temperature. This test was conducted three times, and an average value was determined therefrom.

B1: RGC1: rice-derived glucocerebrosidase purified from rice stems; identical to Os3BGlu6, belongs to GH1; SEQ ID NO: 1 (protein)
chain: MGRIKSSSGRCSTARLEAVAVLVVVFGVASSSLRGCIAQQSGGGLTRGSFPEGFVFGTASAAYQYEGAVKEDGRGQTIWDTFAHTFGKITDFSNADVAVDQYHRFEEDIQLMADMGMDAYRFSIAWSRIYPNGVGQVNQAGIDHYNKLIDALLAKGIQPYVTLYHWDLPQALEDKYKGWLDRQIVDDFAAYAETCFREFGDRVKHWITLNEPHTVAIQGYDAGLQAPGRCSVLLHLYCKAGNSGTEPYVVAHHFILAHAAAASIYRTKYKATQNGQLGIAFDVMWFEPMSNTTIDIEAAKRAQEFQLGWFADPFFFGDYPATMRARVGERLPRFTADEAAVVKGALDFVGINHYTTYYTRHNNTNIIGTLLNNTLADTGTVSLPFKNGKPIGDRANSIWLYIVPRGMRSLMNYVKERYNSPPVYITENGMDDSNNPFISIKDALKDSKRIKYHNDYLTNLAASIKEDGCDVRGYFAWSLLDNWEWAAGYSSRFGLYFVDYKDNLKRYPKNSVQWFKALLKT
modifications: Glycine max (L.) Merr. Enrei
In the case of B1, the “stability (relative residual activity) compared with imiglucerase” value in data set [1] is “evidently superior in stability to imiglucerase”. Also, the “Optimum temperature (° C.)” value in data set [2] (Example 5) and in data set [2] (Example 20) was 54.0 °C throughout.
